In publication PMC3592474:

Legend:
Conditions in all cases: 100 mM Na+, pH 7.5, 21 C; slow pulling (100 nm/s) for equilibrium measurements
[1] = system: Nhp6Ap (Saccharomyces cerevisiae); test: optical tweezers, WLC/FJC linear combination fit
[2] = system: HMGB2 (box A), +/- His tag average (human); test: optical tweezers, WLC/FJC linear combination fit
[3] = system: Nhp6Ap (Saccharomyces cerevisiae); test: optical tweezers, overstretching force, Hill fit
[4] = system: HMGB2 (box A), +/- His tag average (human); test: optical tweezers, overstretching force, Hill fit
[5] = system: Nhp6Ap (Saccharomyces cerevisiae); test: optical tweezers, overstretching force vs concentration
[6] = system: HMGB2 (box A) -his (human); test: as above
[7] = system: HMGB2 (box A), +/- His tag average (human); test: as above
[8] = system: HMGB2 (box A) +his (human); test: as above
[9] = system: Nhp6Ap (Saccharomyces cerevisiae); test: optical tweezers, persistence/contour length, Hill fit
[10] = system: HMGB2 (box A), +/- His tag average (human); test: as above
[11] = system: Nhp6Ap (Saccharomyces cerevisiae); test: optical tweezers, persistence/contour length vs concentration
[12] = system: HMGB2 (box A) -his (human); test: as above
[13] = system: HMGB2 (box A), +/- His tag average (human); test: as above
[14] = system: HMGB2 (box A) +his (human); test: as above

## phage lambda DNA
[1]
  Kd: 63 nM
[2]
  Kd: 460 nM
[3]
  Kd: 150 nM
[4]
  Kd: 850 nM
[5]
  Kd: 160 nM
[6]
  Kd: 830 nM
[7]
  Kd: 880 nM
[8]
  Kd: 930 nM
[9]
  Kd: 66 nM
[10]
  Kd: 170 nM
[11]
  Kd: 71 nM
[12]
  Kd: 130 nM
[13]
  Kd: 180 nM
[14]
  Kd: 230 nM
